Like-named read-outs stand apart in the source and are kept apart here.

Data on seven molecules can be found in paper doi:10.1101/646075 (bioRxiv, 2019).

Experiment [1] addresses human α-thrombin (human) (UniProt P00734).
Experiment [2] has as its target apo-transferrin (iron-unbound transferrin) (human) (UniProt P02787). As to the kind of experiment: SPR. A general note: In SPR one partner is held on a chip, and binding of the other changes the refractive index at the surface.
For experiment [3] the target is unchanged.
Experiment [4] deals with T1, apo-transferrin (iron-unbound transferrin) (human, UniProt P02787 20-698). As to the kind of experiment: SPR.
Experiment [5] addresses T1, apo-transferrin (iron-unbound …). As to the kind of experiment: SPR. The source holds these as a separate data set.
Experiment [6] shares this target.
Experiment [7] shares this target. As to the kind of experiment: SPR. The source holds these as a separate data set.

On to “apo-transferrin (iron-unbound transferrin) (from UniProt P02787 20-698) (natural protein)”, for which the enzymatic activity of thrombin on a chromogenic substrate, Tf at 0.2, 1 and 5 μM in experiment [1] amounted to 1.8 fold.

The term Kd denotes the constant that tells how readily two partners part at equilibrium. A higher Kd goes with weaker binding. Usually koff stands for a measure of how fast the partners let go of each other. A lower koff goes with a long-lived complex. What is called kon is a measure of how fast the partners come together. Higher therefore signals fast association. In experiment [2], FXII (natural protein) had a Kd of 40 nM, a koff of 0.0012 s⁻¹ and an on-rate constant (kon) of 30000 M⁻¹ s⁻¹.

Consider “human α-thrombin (from UniProt P00734) (enzyme)”, for which the Kd in experiment [2] turned out to be 7.7 nM. This molecule also showed a stoichiometry N (Tf per thrombin) in experiment [3] of 1.

In experiment [4], RRNHSCEPCQTLAVRSYR [FX18] showed a Kd of 143 nM, a koff of 0.0004 s⁻¹ and a kon of 2800 M⁻¹ s⁻¹.

B1: human α-FXIIa (enzyme)
chain 1: IPPWEAPKEHKYKAEEHTVVLTVTGEPCHFPFQYHRQLYHKCTHKGRPGPQPWCATTPNFDQDQRWGYCLEPKKVKDHCSKHSPCQKGGTCVNMPSGPHCLCPQHLTGNHCQKEKCFEPQLLRFFHKNEIWYRTEQAAVARCQCKGPDAHCQRLASQACRTNPCLHGGRCLEVEGHRLCHCPVGYTGAFCDVDTKASCYDGRGLSYRGLARTTLSGAPCQPWASEATYRNVTAEQARNWGLGGHAFCRNPDNDIRPWCFVLNRDRLSWEYCDLAQCQTPTQAAPPTPVSPRLHVPLMPAQPAPPKPQPTTRTPPQSQTPGALPAKREQPPSLTRNGPLSCGQRLRKSLSSMTR
chain 2: VVGGLVALRGAHPYIAALYWGHSFCAGSLIAPCWVLTAAHCLQDRPAPEDLTVVLGQERRNHSCEPCQTLAVRSYRLHEAFSPVSYQHDLALLRLQEDADGSCALLSPYVQPVCLPSGAARPSETTLCQVAGWGHQFEGAEEYASFLQEAQVPFLSLERCSAPDVHGSSILPGMLCAGFLEGGTDACQGDSGGPLVCEDQAAERRLTLQGIISWGSGCGDRNKPGVYTDVAYYLAWIREHTVS
In general, stoichiometry N refers to the number of molecules, sites or subunits per partner or assembly. For B1, in experiment [5], the Kd was determined as 13.9 nM, the koff was determined as 0.0025 s⁻¹ and the kon was found to be 180000 M⁻¹ s⁻¹. For the same molecule, the “stoichiometry N” value in experiment [6] came out at 1 Tf per FXIIa.

B2: fibrinogen (complex)
chain 1: ADSGEGDFLAEGGGVRGPRVVERHQSACKDSDWPFCSDEDWNYKCPSGCRMKGLIDEVNQDFTNRINKLKNSLFEYQKNNKDSHSLTTNIMEILRGDFSSANNRDNTYNRVSEDLRSRIEVLKRKVIEKVQHIQLLQKNVRAQLVDMKRLEVDIDIKIRSCRGSCSRALAREVDLKDYEDQQKQLEQVIAKDLLPSRDRQHLPLIKMKPVPDLVPGNFKSQLQKVPPEWKALTDMPQMRMELERPGGNEITRGGSTSYGTGSETESPRNPSSAGSWNSGSSGPGSTGNRNPGSSGTGGTATWKPGSSGPGSTGSWNSGSSGTGSTGNQNPGSPRPGSTGTWNPGSSERGSAGHWTSESSVSGSTGQWHSESGSFRPDSPGSGNARPNNPDWGTFEEVSGNVSPGTRREYHTEKLVTSKGDKELRTGKEKVTSGSTTTTRRSCSKTVTKTVIGPDGHKEVTKEVVTSEDGSDCPEAMDLGTLSGIGTLDGFRHRHPDEAAFFDTASTGKTFPGFFSPMLGEFVSETESRGSESGIFTNTKESSSHHPGIAEFPSRGKSSSYSKQFTSSTSYNRGDSTFESKSYKMADEAGSEADHEGTHSTKRGHAKSRPVRGIHTSPLGKPSLSP
chain 2: QGVNDNEEGFFSARGHRPLDKKREEAPSLRPAPPPISGGGYRARPAKAAATQKKVERKAPDAGGCLHADPDLGVLCPTGCQLQEALLQQERPIRNSVDELNNNVEAVSQTSSSSFQYMYLLKDLWQKRQKQVKDNENVVNEYSSELEKHQLYIDETVNSNIPTNLRVLRSILENLRSKIQKLESDVSAQMEYCRTPCTVSCNIPVVSGKECEEIIRKGGETSEMYLIQPDSSVKPYRVYCDMNTENGGWTVIQNRQDGSVDFGRKWDPYKQGFGNVATNTDGKNYCGLPGEYWLGNDKISQLTRMGPTELLIEMEDWKGDKVKAHYGGFTVQNEANKYQISVNKYRGTAGNALMDGASQLMGENRTMTIHNGMFFSTYDRDNDGWLTSDPRKQCSKEDGGGWWYNRCHAANPNGRYYWGGQYTWDMAKHGTDDGVVWMNWKGSWYSMRKMSMKIRPFFPQQ
chain 3: YVATRDNCCILDERFGSYCPTTCGIADFLSTYQTKVDKDLQSLEDILHQVENKTSEVKQLIKAIQLTYNPDESSKPNMIDAATLKSRKMLEEIMKYEASILTHDSSIRYLQEIYNSNNQKIVNLKEKVAQLEAQCQEPCKDTVQIHDITGKDCQDIANKGAKQSGLYFIKPLKANQQFLVYCEIDGSGNGWTVFQKRLDGSVDFKKNWIQYKEGFGHLSPTGTTEFWLGNEKIHLISTQSAIPYALRVELEDWNGRTSTADYAMFKVGPEADKYRLTYAYFAGGDAGDAFDGFDFGDDPSDKFFTSHNGMQFSTWDNDNDKFEGNCAEQDGSGWWMNKCHAGHLNGVYYQGGTYSKASTPNGYDNGIIWATWKTRWYSMKKTTMKIIPFNRLTIGEGQQHHLGGAKQAGDV
B2: in experiment [7], the “stoichiometry N” value was found to be 4 apo-Tf per fibrinogen.

For the molecule RIGKHSRTRYERNIEK [TH16], in experiment [4], the dissociation constant Kd was 97 nM, the koff is 0.0003 s⁻¹ and the on-rate constant (kon) came out at 3100 M⁻¹ s⁻¹.
